Data from patent US20150344570A1 (published 2015).

T1: FcγRIIa H (FcγRIIa, allotype with His at position 131), extracellular domain with C-terminal His tag (human, UniProt P12318 34-217)
T1 construct: extracellular domain; also called FcgRIIa H; 2aH; not shown: His tag at the C terminus
T1 sequence (looked up): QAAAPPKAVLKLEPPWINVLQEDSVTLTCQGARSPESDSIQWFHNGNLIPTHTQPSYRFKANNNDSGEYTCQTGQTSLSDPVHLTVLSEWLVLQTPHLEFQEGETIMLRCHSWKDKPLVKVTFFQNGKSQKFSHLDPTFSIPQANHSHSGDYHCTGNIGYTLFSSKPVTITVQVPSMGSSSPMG

T2: FcγRIIb, extracellular domain with C-terminal His tag (human, UniProt P31994 43-217)
T2 construct: extracellular domain; also called FcgRIIb; 2b; not shown: His tag at the C terminus
T2 sequence (looked up): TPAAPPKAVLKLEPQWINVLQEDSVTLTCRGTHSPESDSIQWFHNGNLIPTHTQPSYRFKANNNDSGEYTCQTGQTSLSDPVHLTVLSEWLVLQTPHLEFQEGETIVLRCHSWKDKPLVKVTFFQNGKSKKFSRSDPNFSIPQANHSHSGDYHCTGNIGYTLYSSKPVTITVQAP

T3: FcγRIIa H (human, UniProt P12318 34-217)
T3 construct: extracellular domain; also called FcγRIIa type H; 2aH; not shown: His tag at the C terminus
T3 sequence (looked up): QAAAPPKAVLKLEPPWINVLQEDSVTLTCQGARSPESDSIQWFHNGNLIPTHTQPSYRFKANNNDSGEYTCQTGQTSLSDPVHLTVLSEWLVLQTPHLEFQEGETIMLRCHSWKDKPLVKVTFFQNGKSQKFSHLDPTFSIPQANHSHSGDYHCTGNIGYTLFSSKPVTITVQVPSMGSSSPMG

T4: FcγRIIb (human, UniProt P31994 43-217)
T4 construct: extracellular domain; also called 2b; not shown: His tag at the C terminus
T4 sequence (looked up): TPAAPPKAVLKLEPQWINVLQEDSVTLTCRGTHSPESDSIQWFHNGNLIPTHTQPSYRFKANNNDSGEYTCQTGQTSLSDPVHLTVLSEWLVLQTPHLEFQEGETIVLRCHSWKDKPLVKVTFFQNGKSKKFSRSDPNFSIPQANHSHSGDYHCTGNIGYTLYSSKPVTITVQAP


Columns and labels:
[1] = target: T1, FcγRIIa H (FcγRIIa, allotype with His …); assay: SPR (Biacore); He/Con_2aH divided by He/Con_2b (FcγRIIb)
[2] = target: T2, FcγRIIb, extracellular domain with …; assay: SPR (Biacore), relative binding vs GpH7-A5/GpH7-B3/GpL16-k0
[3] = target: T1, FcγRIIa H (FcγRIIa, allotype with His …); assay: as above
FcγRIIa H [4] = target: T3, FcγRIIa H; assay: SPR (Biacore); He/Con_2aH divided by He/Con_2b (FcγRIIa H over FcγRIIb)
FcγRIIb = target: T4, FcγRIIb; assay: SPR (Biacore), antibody captured, FcγR as analyte; binding relative to GpH7-A5/GpH7-B3/GpL16-k0 = 100
FcγRIIa H [5] = target: T3, FcγRIIa H; assay: as above

Row | Binder | He_2aH/2b (IIaH/IIb) [1] [ratio] | He/Con_2b [2] | He/Con_2aH [3] | He_2aH/2b (IIaH/IIb) (FcγRIIa H [4]) [ratio] | He/Con_2b (FcγRIIb) | He/Con_2aH (FcγRIIa H [5])
1 | GpH7-A5/GpH7-B3 variant P331_03V/GpL16-k0 (antibody, human IgG1, kappa, Heterodimerized anti-glypican-3 IgG1; mutation in one H chain only; also called He Ab) heavy 1: not shown heavy 2: not shown light: DIVMTQSPLSLPVTPGEPASISCQASESLVHSNRNTYLHWYLQKPGQSPQLLIYKVSNRFSGVPDRFSGSGSGTDFTLKISRVEAEDVGVYYCSQNTHVPPTFGQGTKVEIERTVAAPSVFIFPPSDEQLKSGTASVVCLLNNFYPREAKVQWKVDNALQSGNSQESVTEQDSKDSTYSLSSTLTLSKADYEKHKVYACEVTHQGLSSPVTKSFNRGEC | 0.7 | 119 % of HeCon Ab (=100) | 82.5 % of HeCon Ab (=100) | – | – | –
2 | GpH7-A5/GpH7-B3 variant P331_04F/GpL16-k0 (antibody, human IgG1, kappa, Heterodimerized anti-glypican-3 IgG1; mutation in one H chain only; also called He Ab) heavy 1: not shown heavy 2: not shown light: DIVMTQSPLSLPVTPGEPASISCQASESLVHSNRNTYLHWYLQKPGQSPQLLIYKVSNRFSGVPDRFSGSGSGTDFTLKISRVEAEDVGVYYCSQNTHVPPTFGQGTKVEIERTVAAPSVFIFPPSDEQLKSGTASVVCLLNNFYPREAKVQWKVDNALQSGNSQESVTEQDSKDSTYSLSSTLTLSKADYEKHKVYACEVTHQGLSSPVTKSFNRGEC | 0.77 | 110 % of HeCon Ab (=100) | 84.7 % of HeCon Ab (=100) | – | – | –
3 | GpH7-A5/GpH7-B3 variant N325_16H/GpL16-k0 (antibody, human IgG1, kappa, Heterodimerized anti-glypican-3 IgG1; mutation in one H chain only; also called He Ab) heavy 1: not shown heavy 2: not shown light: DIVMTQSPLSLPVTPGEPASISCQASESLVHSNRNTYLHWYLQKPGQSPQLLIYKVSNRFSGVPDRFSGSGSGTDFTLKISRVEAEDVGVYYCSQNTHVPPTFGQGTKVEIERTVAAPSVFIFPPSDEQLKSGTASVVCLLNNFYPREAKVQWKVDNALQSGNSQESVTEQDSKDSTYSLSSTLTLSKADYEKHKVYACEVTHQGLSSPVTKSFNRGEC | 0.68 | 70.1 % of HeCon Ab (=100) | 48 % of HeCon Ab (=100) | – | – | –
4 | GpH7-A5/GpH7-B3 variant G236_03V/GpL16-k0 (antibody, human IgG1, kappa, Heterodimerized IgG1; mutation in the GpH7-B3 chain only; also called He Ab) heavy 1: not shown heavy 2: not shown light: DIVMTQSPLSLPVTPGEPASISCQASESLVHSNRNTYLHWYLQKPGQSPQLLIYKVSNRFSGVPDRFSGSGSGTDFTLKISRVEAEDVGVYYCSQNTHVPPTFGQGTKVEIERTVAAPSVFIFPPSDEQLKSGTASVVCLLNNFYPREAKVQWKVDNALQSGNSQESVTEQDSKDSTYSLSSTLTLSKADYEKHKVYACEVTHQGLSSPVTKSFNRGEC | – | – | – | 3.39 | 35.3 % of control | 119 % of control

Results, then the binder that gave them:

Row | He_2aH/2b (IIaH/IIb) [1] [ratio] | He/Con_2b [2] | He/Con_2aH [3] | He_2aH/2b (IIaH/IIb) (FcγRIIa H [4]) [ratio] | He/Con_2b (FcγRIIb) | He/Con_2aH (FcγRIIa H [5]) | Binder
5 | 0.75 | 114 % of HeCon Ab (=100) | 86 % of HeCon Ab (=100) | – | – | – | GpH7-A5/GpH7-B3 variant P331_15Y/GpL16-k0 (antibody, human IgG1, kappa, Heterodimerized anti-glypican-3 IgG1; mutation in one H chain only; also called He Ab) heavy 1: not shown heavy 2: not shown light: DIVMTQSPLSLPVTPGEPASISCQASESLVHSNRNTYLHWYLQKPGQSPQLLIYKVSNRFSGVPDRFSGSGSGTDFTLKISRVEAEDVGVYYCSQNTHVPPTFGQGTKVEIERTVAAPSVFIFPPSDEQLKSGTASVVCLLNNFYPREAKVQWKVDNALQSGNSQESVTEQDSKDSTYSLSSTLTLSKADYEKHKVYACEVTHQGLSSPVTKSFNRGEC
6 | 0.28 | 169 % of HeCon Ab (=100) | 47.2 % of HeCon Ab (=100) | – | – | – | GpH7-A5/GpH7-B3 variant N325_20W/GpL16-k0 (antibody, human IgG1, kappa, Heterodimerized anti-glypican-3 IgG1; mutation in one H chain only; also called He Ab) heavy 1: not shown heavy 2: not shown light: DIVMTQSPLSLPVTPGEPASISCQASESLVHSNRNTYLHWYLQKPGQSPQLLIYKVSNRFSGVPDRFSGSGSGTDFTLKISRVEAEDVGVYYCSQNTHVPPTFGQGTKVEIERTVAAPSVFIFPPSDEQLKSGTASVVCLLNNFYPREAKVQWKVDNALQSGNSQESVTEQDSKDSTYSLSSTLTLSKADYEKHKVYACEVTHQGLSSPVTKSFNRGEC
7 | 0.68 | 114 % of HeCon Ab (=100) | 77.4 % of HeCon Ab (=100) | – | – | – | GpH7-A5/GpH7-B3 variant P331_07I/GpL16-k0 (antibody, human IgG1, kappa, Heterodimerized anti-glypican-3 IgG1; mutation in one H chain only; also called He Ab) heavy 1: not shown heavy 2: not shown light: DIVMTQSPLSLPVTPGEPASISCQASESLVHSNRNTYLHWYLQKPGQSPQLLIYKVSNRFSGVPDRFSGSGSGTDFTLKISRVEAEDVGVYYCSQNTHVPPTFGQGTKVEIERTVAAPSVFIFPPSDEQLKSGTASVVCLLNNFYPREAKVQWKVDNALQSGNSQESVTEQDSKDSTYSLSSTLTLSKADYEKHKVYACEVTHQGLSSPVTKSFNRGEC
8 | 0.75 | 116 % of HeCon Ab (=100) | 87.1 % of HeCon Ab (=100) | – | – | – | GpH7-A5/GpH7-B3 variant P331_10E/GpL16-k0 (antibody, human IgG1, kappa, Heterodimerized anti-glypican-3 IgG1; mutation in one H chain only; also called He Ab) heavy 1: not shown heavy 2: not shown light: DIVMTQSPLSLPVTPGEPASISCQASESLVHSNRNTYLHWYLQKPGQSPQLLIYKVSNRFSGVPDRFSGSGSGTDFTLKISRVEAEDVGVYYCSQNTHVPPTFGQGTKVEIERTVAAPSVFIFPPSDEQLKSGTASVVCLLNNFYPREAKVQWKVDNALQSGNSQESVTEQDSKDSTYSLSSTLTLSKADYEKHKVYACEVTHQGLSSPVTKSFNRGEC
